PMC8034652 (Nucleic Acids Research, 2021)

Target: the molecule itself
Experiment: native gel or EMSA

| Protein | binding result |
| --- | --- |
| FOXO1 R225A mutant (domain or fragment) KSSSSRRNAWGNLSYADLITKAIESSAEKRLTLSQIYEWMVKSVPYFKDKGDSNSSAGWKNSIRHNLSLHSKFIAVQNEGTGKSSWWMLNPEGGKSGKSPRRRAASMDNNSKFAKS | binds |
| FOXO1 Q227A mutant (domain or fragment) KSSSSRRNAWGNLSYADLITKAIESSAEKRLTLSQIYEWMVKSVPYFKDKGDSNSSAGWKNSIRHNLSLHSKFIRVANEGTGKSSWWMLNPEGGKSGKSPRRRAASMDNNSKFAKS | binds |
